Consider 4 molecules from patent publication US20230012273A1 (Boehringer Ingelheim, published 2023).

Numbering of substitutions follows the chain as printed. Where two headings read alike, the source gives them in different places.

In experiment [1] the target is full-length human SIRPβ1 D→H on Expi-CHO cells (human, UniProt O00241 30-398). Kind of experiment: flow cytometry, Expi-CHO cells. The protocol: These cells are blocked with donkey IgG and incubated on ice with increasing concentrations of antibodies for 60 minutes, washed and stained with AF647-conjugated donkey F(ab′)₂ anti-human IgG antibodies. Stained cells are washed, fixed, and analyzed by flow cytometry. Median fluorescent intensity is determined and used as a measure of antibody binding.

The target in experiment [2] is T1, human SIRPαV1 extracellular domain + His-tag (NP_542970.1) (human, UniProt P78324 31-373).
T1 construct: also called hSIRPαV1; HuSIRPαV1
Nature of the experiment: SPR, Ab captured, ECD-His analyte. Put shortly: (§1)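 SPR; Ab capture surface, ethanolamine-deactivated (1M, 420 s, 10 μl/min). Analyte: SIRP ECD+His, 2-fold dilution series in 1×HBS-EP+. Inject 300 s @ 30 μl/min; dissoc. 600 s.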
On the technique in general: SPR reads the build-up and loss of mass on a sensor chip optically.

Experiment [3] has as its target T2, human SIRPαV2 extracellular domain + His-tag (CAA71403.1) (human, UniProt P78324 31-373).
T2 construct: also called hSIRPαV2; HuSIRPαV2
Nature of the experiment: SPR, Ab captured, ECD-His analyte. Summed up: as §1

Experiment [4] addresses T3, human SIRPβ1 extracellular domain + His-tag (NP_006056.2) (human, UniProt O00241 30-371).
T3 construct: also called hSIRPβ1; HuSIRPβ1
Nature of the experiment: SPR, Ab captured, ECD-His analyte. Put shortly: as §1

In experiment [5] the target is T4, human SIRPβL/SIRPβ1v3 extracellular domain + His-tag (NP_001129316.1) (human, UniProt Q5TFQ8 30-371).
T4 construct: also called hSIRPβ1v3; HuSIRPβ1v3
Nature of the experiment: SPR, Ab captured, ECD-His analyte. Summed up:
as §1

For experiment [6], the target named is T5, human SIRPγ extracellular domain + His-tag (NP_061026.2) (human, UniProt Q9P1W8 29-360).
T5 construct: also called hSIRPγ; HuSIRPγ
Kind of experiment: SPR, Ab captured, ECD-His analyte. Summed up:
as §1

In experiment [7] the target is T6, mouse SIRPα extracellular domain + His-tag (NP_031573) (mouse, UniProt P97797 32-373).
T6 chain: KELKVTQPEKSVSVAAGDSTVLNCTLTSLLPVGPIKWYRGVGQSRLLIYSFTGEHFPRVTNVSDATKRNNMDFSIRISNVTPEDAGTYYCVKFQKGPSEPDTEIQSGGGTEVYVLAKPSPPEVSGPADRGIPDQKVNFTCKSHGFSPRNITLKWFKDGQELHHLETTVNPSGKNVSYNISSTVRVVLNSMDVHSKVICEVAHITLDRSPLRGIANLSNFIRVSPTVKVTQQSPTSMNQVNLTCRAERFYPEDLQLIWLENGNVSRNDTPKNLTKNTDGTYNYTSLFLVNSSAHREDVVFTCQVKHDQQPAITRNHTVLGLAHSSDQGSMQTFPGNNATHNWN
Kind of experiment: SPR, Ab captured, ECD-His analyte. The method, then: (§2) The binding affinity of anti-SIRPα antibodies to the various SIRPα analytes is determined by surface plasmon resonance (SPR) using a ProteOn XPR36 (Bio-Rad). The running buffer for this experiment and all dilutions (except where stated) are done in 1×HBS-EP+. […] The sensorchip is deactivated with 1M ethanolamine HCl for 420 sec at a flowrate of 10 μl/min.
(§3) The analyte is injected over the captured antibody for 300 sec at a flowrate of 30 μl/min. The dissociation is done for 600 sec. Two-fold serial dilutions of each SIRP protein (Extracellular Domain+His-Tag) are injected as analyte with the highest concentrations indicated in table 36 below.

In experiment [8] the target is T1, human SIRPαV1 extracellular domain + …. Kind of experiment: SPR, Ab captured, ECD-His analyte. The protocol:
as §2, §3
This is another data set of the same source.

Experiment [9] concerns the target T2, human SIRPαV2 extracellular domain + …. Nature of the experiment: SPR, Ab captured, ECD-His analyte. The protocol: as §2, §3
This is another data set of the same source.

Experiment [10] addresses T3, human SIRPβ1 extracellular domain + …. Kind of experiment: SPR, Ab captured, ECD-His analyte. The protocol: as §2, §3
This is another data set of the same source.

Experiment [11] deals with T4, human SIRPβL/SIRPβ1v3 extracellular …. Nature of the experiment: SPR, Ab captured, ECD-His analyte. The method, then: as §2, §3
This is another data set of the same source.

The target of experiment [12] is T7, full-length human SIRPγ (NP_061026.2) on cells (human, UniProt Q9P1W8 29-387).
T7 construct: on CHO and Expi-CHO cells; endogenous on primary human CD3+ T cells; also called γ WT
Kind of experiment: flow cytometry, primary human CD3+ T cells. The protocol: (§4) Antibody binding to primary human T cells expressing endogenous SIRPγ is evaluated by flow cytometry. Human peripheral blood mononuclear cells (PBMCs) are blocked with donkey IgG and incubated on ice with increasing concentrations of antibody for 60 minutes, washed and stained with AF647-conjugated donkey F(ab′)₂ anti-human IgG secondary reagent. […] Cells are washed, fixed, and analyzed by flow cytometry. Median fluorescent intensity of CD3+ gated population is determined and used as a measure of antibody binding.
(A flow cytometer gives signals particle by particle.)
T7 sequence (Q9P1W8 29-387): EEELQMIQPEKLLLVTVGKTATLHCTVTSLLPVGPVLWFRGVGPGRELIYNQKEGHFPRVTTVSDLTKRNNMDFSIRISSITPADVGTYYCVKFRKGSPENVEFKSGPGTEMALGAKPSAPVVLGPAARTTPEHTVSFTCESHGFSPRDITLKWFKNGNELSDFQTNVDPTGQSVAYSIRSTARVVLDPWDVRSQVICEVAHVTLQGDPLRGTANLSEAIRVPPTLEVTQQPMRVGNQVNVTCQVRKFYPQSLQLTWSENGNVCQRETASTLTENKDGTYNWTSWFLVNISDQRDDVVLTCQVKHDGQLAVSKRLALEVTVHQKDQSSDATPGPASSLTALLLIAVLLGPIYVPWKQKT

Experiment [13] concerns the target T8, full-length human SIRPαV1 (NP_542970.1) on cells (human, UniProt P78324 31-504).
T8 construct: one molecule for CHO-K1 and Expi-CHO transfectants (NP_542970.1) and for endogenous V1 on U-937 cells and on CD14+ monocytes of V1/V1 donors; also called CHO-hSIRPαV1; αV1 WT
Nature of the experiment: flow cytometry, CD14+ monocytes V1V1. The protocol:
as §4, with “human” for “human T”, “expressing SIRPα” for “expressing endogenous SIRPγ”, “(PBMCs) from donors genotyped as homozygous for the SIRPα V1 allele, V2 allele, or heterozygous for both alleles” for “(PBMCs)”, “of the CD14+” for “of CD3+ gated”, “population was” for “population is”

The target in experiment [14] is T9, full-length human SIRPαV2 (CAA71403.1) on cells (human, UniProt P78324 31-504).
T9 construct: one molecule for CHO-K1 and Expi-CHO transfectants (CAA71403.1) and for endogenous V2 on THP-1 cells and on CD14+ monocytes of V2/V2 donors; also called CHO-hSIRPαV2; αV2 WT
Nature of the experiment: flow cytometry, CD14+ monocytes V2V2. The method, then:
as §4, with “human” for “human T”, “expressing SIRPα” for “expressing endogenous SIRPγ”, “(PBMCs) from donors genotyped as homozygous for the SIRPα V1 allele, V2 allele, or heterozygous for both alleles” for “(PBMCs)”, “of the CD14+” for “of CD3+ gated”, “population was” for “population is”

The target of experiment [15] is T10, full-length human SIRPγ (NP_061026.2) on cells (human, UniProt Q9P1W8 29-387).
T10 construct: also called CHO-hSIRPγ; γ WT
Nature of the experiment: flow cytometry, primary CD3+ T cells. The protocol: as §4
T10 sequence (Q9P1W8 29-387): as above

The target of experiment [16] is T11, full-length human SIRPβ1 (NP_006056.2) on cells (human, UniProt O00241 30-398).
T11 construct: also called β1 WT
Nature of the experiment: flow cytometry, U937 SIRPα-KO transfectants. The method, then:
(§5) Antibody binding to cells expressing full-length human SIRPβ1 (NP_006056.2) and SIRPβL (NP_001129316.1) is evaluated by flow cytometry. SIRPβ1- or SIRPβL-expressing U937^{SIRPα KO} cells are blocked with donkey IgG and incubated on ice with increasing concentrations of antibodies for 60 minutes, washed and stained with AF647-conjugated donkey F(ab′)₂ anti-human IgG secondary reagent. Cells are washed, fixed, and analyzed by flow cytometry. Median fluorescent intensity is determined and used as a measure of antibody binding.

Experiment [17] concerns the target T12, full-length human SIRPβL (NP_001129316.1) on cells (human, UniProt Q5TFQ8 30-398).
T12 construct: one molecule for U937 SIRPα-KO transfectants (NP_001129316.1) and Expi-CHO transfectants (Q5TFQ8); also called SIRPβ1v3; βL WT
Nature of the experiment: flow cytometry, U937 SIRPα-KO transfectants. The protocol:
as §5

For experiment [18], the target named is T8, full-length human SIRPαV1 (NP_542970.1) …. Nature of the experiment: flow cytometry, competition with CD47 tetramer, monocytes V1V1. The protocol: (§6) Cells are washed, fixed, and analyzed by flow cytometry. Median fluorescent intensity of CD14+gated population is determined and used as a measure of CD47 binding.
Experiment [19] deals with T9, full-length human SIRPαV2 (CAA71403.1) …. Nature of the experiment: flow cytometry, competition with CD47 tetramer, monocytes V2V2. The protocol: as §6
The target in experiment [20] is T13, cynomolgus SIRPα extracellular domain + His-tag (NP_001271679) (cynomolgus monkey).
T13 construct: also called CySIRPα NP_001271679; cynoSIRPα
T13 chain: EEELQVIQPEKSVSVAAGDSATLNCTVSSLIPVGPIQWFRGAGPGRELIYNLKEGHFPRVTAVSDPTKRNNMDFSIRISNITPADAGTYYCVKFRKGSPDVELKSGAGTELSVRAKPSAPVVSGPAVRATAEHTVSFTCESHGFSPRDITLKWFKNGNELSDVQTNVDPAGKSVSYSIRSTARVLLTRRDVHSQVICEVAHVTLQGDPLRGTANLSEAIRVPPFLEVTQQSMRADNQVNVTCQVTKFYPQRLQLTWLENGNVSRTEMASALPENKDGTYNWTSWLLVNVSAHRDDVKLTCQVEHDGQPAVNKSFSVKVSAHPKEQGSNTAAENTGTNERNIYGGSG
Kind of experiment: SPR, Ab captured, ECD-His analyte. The protocol:
as §2, §3

T1 sequence (P78324 other isoform, or with tags, fused parts or gaps): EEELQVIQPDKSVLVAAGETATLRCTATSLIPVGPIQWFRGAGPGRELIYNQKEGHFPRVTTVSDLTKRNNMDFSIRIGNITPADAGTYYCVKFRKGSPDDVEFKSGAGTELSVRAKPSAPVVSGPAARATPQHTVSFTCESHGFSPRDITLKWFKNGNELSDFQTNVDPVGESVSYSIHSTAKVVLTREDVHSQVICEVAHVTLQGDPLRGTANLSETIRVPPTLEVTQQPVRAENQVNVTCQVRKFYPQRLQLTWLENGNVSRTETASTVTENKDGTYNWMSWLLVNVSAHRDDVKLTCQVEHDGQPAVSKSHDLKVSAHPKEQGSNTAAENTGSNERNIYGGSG
T5 sequence (Q9P1W8 29-360): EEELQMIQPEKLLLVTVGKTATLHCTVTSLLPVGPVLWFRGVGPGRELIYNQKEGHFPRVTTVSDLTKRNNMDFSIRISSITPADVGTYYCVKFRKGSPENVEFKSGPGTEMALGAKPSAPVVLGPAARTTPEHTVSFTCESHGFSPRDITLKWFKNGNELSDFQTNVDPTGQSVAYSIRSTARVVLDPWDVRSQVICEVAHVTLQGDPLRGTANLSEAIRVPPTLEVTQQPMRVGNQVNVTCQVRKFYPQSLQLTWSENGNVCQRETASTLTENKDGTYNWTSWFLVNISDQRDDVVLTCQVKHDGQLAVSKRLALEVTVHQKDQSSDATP
T4 sequence (Q5TFQ8 other isoform, or with tags, fused parts or gaps): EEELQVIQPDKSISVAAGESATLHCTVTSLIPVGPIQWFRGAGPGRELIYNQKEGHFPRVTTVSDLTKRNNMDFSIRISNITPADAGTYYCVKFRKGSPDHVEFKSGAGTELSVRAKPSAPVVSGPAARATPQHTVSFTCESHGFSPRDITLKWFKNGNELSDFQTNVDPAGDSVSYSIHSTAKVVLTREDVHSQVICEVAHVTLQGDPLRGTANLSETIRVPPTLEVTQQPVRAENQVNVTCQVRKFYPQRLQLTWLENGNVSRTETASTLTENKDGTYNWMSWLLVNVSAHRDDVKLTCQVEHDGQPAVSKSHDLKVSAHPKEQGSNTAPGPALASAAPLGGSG
T2 sequence (P78324 other isoform, or with tags, fused parts or gaps): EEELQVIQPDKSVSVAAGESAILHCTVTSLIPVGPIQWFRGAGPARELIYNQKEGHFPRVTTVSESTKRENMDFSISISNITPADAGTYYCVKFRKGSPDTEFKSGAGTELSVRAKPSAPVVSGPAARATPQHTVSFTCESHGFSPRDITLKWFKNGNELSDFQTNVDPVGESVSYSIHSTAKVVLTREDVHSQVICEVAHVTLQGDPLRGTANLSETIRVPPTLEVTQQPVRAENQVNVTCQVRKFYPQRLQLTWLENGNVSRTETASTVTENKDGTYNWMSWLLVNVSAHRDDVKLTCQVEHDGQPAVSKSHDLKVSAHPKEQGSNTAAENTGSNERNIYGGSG
T3 sequence (O00241 other isoform, or with tags, fused parts or gaps): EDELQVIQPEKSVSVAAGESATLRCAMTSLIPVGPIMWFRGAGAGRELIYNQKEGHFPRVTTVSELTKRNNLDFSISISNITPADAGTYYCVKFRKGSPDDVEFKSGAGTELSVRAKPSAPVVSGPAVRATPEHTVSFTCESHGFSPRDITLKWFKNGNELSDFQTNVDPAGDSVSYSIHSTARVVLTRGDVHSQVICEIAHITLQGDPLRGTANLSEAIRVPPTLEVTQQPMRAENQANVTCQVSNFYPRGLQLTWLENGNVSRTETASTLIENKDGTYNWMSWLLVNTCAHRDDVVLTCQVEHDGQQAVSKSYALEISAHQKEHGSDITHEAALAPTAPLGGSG
T9 sequence (P78324 other isoform, or with tags, fused parts or gaps): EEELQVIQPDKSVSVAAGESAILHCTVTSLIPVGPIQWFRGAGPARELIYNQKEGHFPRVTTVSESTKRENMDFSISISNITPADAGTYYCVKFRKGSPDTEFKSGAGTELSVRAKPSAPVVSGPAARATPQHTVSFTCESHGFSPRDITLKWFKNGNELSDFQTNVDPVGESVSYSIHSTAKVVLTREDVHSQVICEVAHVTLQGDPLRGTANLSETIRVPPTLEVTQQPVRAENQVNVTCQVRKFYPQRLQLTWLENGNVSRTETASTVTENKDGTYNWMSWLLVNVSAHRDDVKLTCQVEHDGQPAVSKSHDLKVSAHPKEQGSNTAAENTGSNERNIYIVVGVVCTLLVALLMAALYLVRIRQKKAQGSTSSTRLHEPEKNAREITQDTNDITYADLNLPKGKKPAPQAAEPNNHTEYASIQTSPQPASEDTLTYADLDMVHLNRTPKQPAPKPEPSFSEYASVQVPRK
T8 sequence (P78324 31-504): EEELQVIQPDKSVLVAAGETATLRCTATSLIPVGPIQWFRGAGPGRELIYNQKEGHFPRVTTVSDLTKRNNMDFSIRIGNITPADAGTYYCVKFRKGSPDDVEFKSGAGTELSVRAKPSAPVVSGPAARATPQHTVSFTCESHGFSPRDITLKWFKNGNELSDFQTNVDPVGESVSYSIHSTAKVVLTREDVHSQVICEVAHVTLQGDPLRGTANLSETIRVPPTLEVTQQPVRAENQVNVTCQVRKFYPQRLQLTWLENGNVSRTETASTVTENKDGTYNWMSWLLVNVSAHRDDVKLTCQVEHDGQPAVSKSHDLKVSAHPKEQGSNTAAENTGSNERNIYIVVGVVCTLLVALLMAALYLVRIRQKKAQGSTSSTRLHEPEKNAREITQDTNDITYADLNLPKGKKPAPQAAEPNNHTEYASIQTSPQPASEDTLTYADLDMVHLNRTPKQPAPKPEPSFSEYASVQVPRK
Chain of full-length human SIRPβ1 D→H on Expi-CHO cells (O00241 30-398 D130H): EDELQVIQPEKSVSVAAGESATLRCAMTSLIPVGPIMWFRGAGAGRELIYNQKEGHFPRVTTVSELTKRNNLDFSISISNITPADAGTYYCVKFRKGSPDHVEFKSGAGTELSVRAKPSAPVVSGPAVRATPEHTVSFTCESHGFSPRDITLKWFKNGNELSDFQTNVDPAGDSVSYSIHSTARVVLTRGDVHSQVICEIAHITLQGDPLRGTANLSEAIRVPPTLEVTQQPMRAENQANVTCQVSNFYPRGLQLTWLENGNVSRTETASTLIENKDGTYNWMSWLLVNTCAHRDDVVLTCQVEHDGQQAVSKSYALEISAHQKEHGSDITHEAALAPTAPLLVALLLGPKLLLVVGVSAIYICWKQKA
T12 sequence (Q5TFQ8 30-398): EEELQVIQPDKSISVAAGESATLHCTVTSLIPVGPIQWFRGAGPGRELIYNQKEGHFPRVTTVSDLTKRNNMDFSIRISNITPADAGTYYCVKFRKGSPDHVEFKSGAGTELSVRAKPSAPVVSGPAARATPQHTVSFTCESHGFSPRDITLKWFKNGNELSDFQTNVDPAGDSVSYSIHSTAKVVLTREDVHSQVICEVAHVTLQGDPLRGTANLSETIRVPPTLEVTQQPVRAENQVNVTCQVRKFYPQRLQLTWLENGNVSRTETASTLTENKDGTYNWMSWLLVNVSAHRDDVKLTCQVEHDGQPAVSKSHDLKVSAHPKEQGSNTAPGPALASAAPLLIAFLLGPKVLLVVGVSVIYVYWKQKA
T11 sequence (O00241 30-398): as the sequence (O00241 30-398 D130H) above, with H101D counted along it

B1: Antibody E (antibody, human IgG1, kappa, L234A L235A)
heavy: not shown
light: DIVMTQSPLSLPVTPGEPASISCKSSQSLLYSNGYNYLDWYLQRPGQSPQLLIYLGSNRASGVPDRFSGSGSGTDFTLKISRVEAEDVGVFYCMQALQTPLTFGGGTKVEIKRTVAAPSVFIFPPSDEQLKSGTASVVCLLNNFYPREAKVQWKVDNALQSGNSQESVTEQDSKDSTYSLSSTLTLSKADYEKHKVYACEVTHQGLSSPVTKSFNRGEC
With B1, the values for the binding result in experiment [1], in experiment [6] and in experiment [7] were “no binding”, “no binding (tested: 1000 nM)” and “no binding”, respectively. Also, the Kd worked out at 0.456 nM in experiment [2]; 0.42 nM in experiment [3]; 1230 nM in experiment [4]; 1.16 nM in experiment [5]; 0.425 nM in experiment [8]; 0.33 nM in experiment [9]. Further, the figures for the Kd in experiment [10] and in experiment [11] were 771 nM and 0.81 nM, respectively.

B2: Antibody G (antibody, human IgG4 S228P, kappa)
heavy: not shown
light: B1 light
Consider B2, for which the Kd in experiment [2] is 0.497 nM; in [3], 0.465 nM; in experiment [4], 1270 nM; in [5] it was 1.27 nM. Besides, the binding result in [6] is “no binding (tested: 1000 nM)”; in experiment [7], “no binding”; in experiment [12] it was “no binding”.

B3: anti-SIRPα antibody SIRP AB11 (antibody, V domains shown)
VH: QVQLVQSGAEVKKPGASVKVSCKASGYTFRGYGISWVRQAPGQGLEWMGWISAYGGETNYAQKLQGRVTMTTDTSTSTAYMELRSLRSDDTAVYYCAREAGSSWYDFDLWGRGTLVTVSS
VL: DIQMTQSPSSVSASVGDRVTITCRASQGISSWLAWYQQKPGKAPKLLIYAASNLQSGVPSRFSGSGSGTDFTLTISSLQPEDFATYYCQQGASFPITFGGGTKVEIKR
For the molecule B3, the EC50 in experiment [13] is 0.1 nM; in experiment [14], 0.1 nM; in [15], 0.02 nM; in [16], 0.1 nM; in [17], 0.2 nM. In addition, the figures for the IC50 in experiment [18] and in [19] were 0.02 nM and 0.05 nM, respectively.

B4: Antibody B (antibody, human IgG1, kappa, L234A L235A, V domains shown)
VH: QVQLVQSGAEVKKPGASVKVSCKASGYTFTGNYMHWVRQAPGQGLEWMGWINPNSGGTNYAQKFQGRVTMTRDTSISTAYMELSRLRSDDTAVYYCVSGSGWYENYYYYGMDVWGQGTTVTVSS
VL: B3 VL with A51E, N53S, G91A, A92N, I96L
For the molecule B4, the Kd in [2] turned out to be 17.4 nM; in experiment [3], 71.5 nM. In addition, the binding result in [6] is “no binding (tested: 1000 nM)”; in experiment [7], “no binding”; in experiment [20], “no binding (tested: 1000 nM)”.

A word on the Kd: it is the free concentration of one partner at which half of the binding sites on the other are occupied at equilibrium, for simple one-to-one binding. As usually defined, the EC50 is the concentration that produces a half-maximal response. Higher therefore signals weaker potency. In general, IC50 refers to the concentration at which inhibition is half-maximal.
